Laboratory results published in US9068000B2, “Monoclonal antibodies for enhancing or inhibiting insulin-like growth factor-I” (The University of North Carolina at Chapel Hill, priority 2004, dated 2015).
No end group written: not given here.

How the values were obtained:
IGF-I receptor = assay: Activation of the IGF-I receptor by IGF-I; type: cell-based
Excerpt: (§1) Modification of IGF-I actions. […] These assays include but are not totally limited to the following: β3 subunit phosphorylation, β3 binding to SHPS-1, and integrin associated protein (IAP) as a complex, the association of IAP with SHPS-1, SHPS-1 phosphorylation and Shc recruitment to SHPS-1, Shc phosphorylation, stimulation of DNA synthesis and cell replication or cell migration. Ligands that bind to β3 through the cysteine loop domain often induce both conformational changes and β3 phosphorylation. Similarly, stimulation of β3 phosphorylation can induce a conformational change in β3 secondarily. β3 phosphorylation is measured by applying the compound that binds to β3 to smooth muscle and endothelial cells in culture. […] The lysates are either analyzed directly by immunoblotting for β3 to measure […] or immunoprecipitated with an anti β3 antibody and then immunoblotted for phosphotyrosine. Immunoblotting is analyzed following separation of the proteins contained in 30 μl of cell lysate by SDS polyacrylamide gel electrophoresis (SDS-PAGE). […] The amount of phosphorylated β3 is then determined by SDS-PAGE followed by immunoblotting with a monoclonal anti-phosphotyrosine antibody (PY99) (Ling Y, Maile L A, Clemmons D R, Mol Endocrinol, 17:1824-1833 (2003)).

IGF-I = IGF-I biologic actions (DNA synthesis, cell migration, protein synthesis); type: cell-based
Experimental: Cell Replication. Smooth muscle and/or endothelium are plated at relatively low density, 10^4/cm^2 in low serum (0.2%) containing medium. 24 hr after plating, cells are quiesced in 0.2% platelet poor plasma containing medium. 24 hr later the cultures are exposed to increasing concentrations of IGF-I between 0 and 100 ng/ml and the β3 agonists or antagonists. After 48 hr, the cell cultures are stained with trypan blue and the cell number is determined by manual counting. If β3 is occupied by an agonist then there is at least a 2 fold increase in cell number over this time period. Whereas if an antagonist is added there is often less than 20% increase in cell number.
Cell Migration. Confluent quiescent smooth muscle or endothelial cell cultures are wounded with a razor blade as described in Maile L A, Imai Y, Clarke J B, Clemmons D R, J. Biol. Chem., 277:1800-1805 (2002). The wounds are examined to determine that a straight edge has been obtained and there are no grooves in the plate. At least five areas that are correctly wounded are then identified with a color marker. IGF-I is added at concentrations of either 50 or 100 ng/ml and various concentrations of the angonists or antagonists are added to at least duplicate cultures. After 72 hr the number of cells that have migrated at least 50 microns from the wound edge are determined and counted following staining with methylene blue. […]

αVβ3 integrin = αVβ3 integrin (Homo sapiens, UniProt P05106); assay: Binding of peptides/ligands to the cysteine loop region of αVβ3
Excerpt: As noted above, the agonists bind to a specific region on the αVβ3 integrin receptor that has not been identified previously as a region that would result in receptor activation. All agonists that we have determined to bind in this region contain a region of sequence that is commonly termed a heparin binding domain. This heparin binding domain is present in 5 ligands that we have found to date that bind to this region of αVβ3. The documentation that they bind to a specific region of αVβ3 has been provided by two types of experiments. First we have a polyclonal antibody that is known to react with this region of αVβ3, which is the region of the β3 subunit that is located between amino acids at positions 177 and 183.
A more definitive experiment was conducted in which the identical region of the β1 integrin was substituted by mutagenesis for this […] amino acid region within β3. […] Binding assays were then conducted using these ligands.

β3 phosphorylation = assay: β3 phosphorylation, SHP-2 transfer and enhancement of IGF-I receptor activation; type: cell-based
Excerpt: as §1

Sequence of αVβ3 integrin (P05106 27-788): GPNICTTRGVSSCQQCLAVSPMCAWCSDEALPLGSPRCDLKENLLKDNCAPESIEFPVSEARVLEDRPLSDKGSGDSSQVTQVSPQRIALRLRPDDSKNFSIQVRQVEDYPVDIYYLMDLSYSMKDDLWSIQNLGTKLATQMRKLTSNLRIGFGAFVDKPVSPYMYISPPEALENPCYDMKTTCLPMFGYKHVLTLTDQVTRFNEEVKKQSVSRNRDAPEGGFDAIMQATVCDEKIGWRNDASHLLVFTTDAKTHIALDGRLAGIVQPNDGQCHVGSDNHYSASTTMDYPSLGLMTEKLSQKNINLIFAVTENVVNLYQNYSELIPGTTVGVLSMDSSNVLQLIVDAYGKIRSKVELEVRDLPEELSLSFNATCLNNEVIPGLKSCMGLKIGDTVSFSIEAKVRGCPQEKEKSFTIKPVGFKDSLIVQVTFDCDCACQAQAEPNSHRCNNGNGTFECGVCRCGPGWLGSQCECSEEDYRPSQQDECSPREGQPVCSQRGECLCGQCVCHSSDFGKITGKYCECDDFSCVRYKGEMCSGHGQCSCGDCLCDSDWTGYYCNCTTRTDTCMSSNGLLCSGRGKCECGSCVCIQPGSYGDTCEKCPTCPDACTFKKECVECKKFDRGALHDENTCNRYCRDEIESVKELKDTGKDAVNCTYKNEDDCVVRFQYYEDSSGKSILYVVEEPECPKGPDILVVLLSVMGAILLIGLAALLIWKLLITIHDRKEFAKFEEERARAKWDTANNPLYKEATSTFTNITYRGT
Sequence of αVβ3 integrin (P06756 31-889 partner limits assumed): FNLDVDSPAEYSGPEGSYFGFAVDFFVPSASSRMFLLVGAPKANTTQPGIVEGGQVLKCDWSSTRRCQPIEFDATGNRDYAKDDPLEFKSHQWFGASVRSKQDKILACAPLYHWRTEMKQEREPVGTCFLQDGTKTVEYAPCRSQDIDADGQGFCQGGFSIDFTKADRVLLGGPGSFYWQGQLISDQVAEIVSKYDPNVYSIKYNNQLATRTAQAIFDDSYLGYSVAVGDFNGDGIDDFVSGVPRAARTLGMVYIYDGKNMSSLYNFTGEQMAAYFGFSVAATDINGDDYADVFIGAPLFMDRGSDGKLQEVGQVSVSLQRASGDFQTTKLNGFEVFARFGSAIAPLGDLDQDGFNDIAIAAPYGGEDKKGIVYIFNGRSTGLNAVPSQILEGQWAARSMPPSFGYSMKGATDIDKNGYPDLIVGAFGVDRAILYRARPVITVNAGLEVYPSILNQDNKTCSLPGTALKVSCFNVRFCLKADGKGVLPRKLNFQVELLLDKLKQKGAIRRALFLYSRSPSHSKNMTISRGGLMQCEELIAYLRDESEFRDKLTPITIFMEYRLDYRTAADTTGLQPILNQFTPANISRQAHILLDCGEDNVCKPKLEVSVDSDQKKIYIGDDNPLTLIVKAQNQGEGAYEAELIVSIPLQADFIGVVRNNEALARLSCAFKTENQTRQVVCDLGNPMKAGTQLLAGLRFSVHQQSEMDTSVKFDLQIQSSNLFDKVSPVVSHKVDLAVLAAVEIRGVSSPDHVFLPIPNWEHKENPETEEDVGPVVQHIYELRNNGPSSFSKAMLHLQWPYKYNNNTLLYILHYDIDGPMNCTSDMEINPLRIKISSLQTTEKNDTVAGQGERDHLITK
Sequence of αVβ3 integrin (P06756 891-1048 partner limits assumed): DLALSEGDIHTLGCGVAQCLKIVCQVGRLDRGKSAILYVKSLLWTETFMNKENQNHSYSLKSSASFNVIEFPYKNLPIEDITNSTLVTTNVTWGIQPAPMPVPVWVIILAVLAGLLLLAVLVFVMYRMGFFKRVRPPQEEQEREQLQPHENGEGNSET

| Molecule | binding to αVβ3 / β3 cysteine loop region (αVβ3 integrin) | further results |
| --- | --- | --- |
| KKQRFRHL (Synthetic IGF-I antagonist) [IGF-I antagonist peptide] | – | inhibition of activation of the IGF-I receptor by IGF-I (IGF-I receptor): approximately 60%; inhibitory activity on IGF-I actions in biologic assays (IGF-I): inhibitory activity |
| cyclized peptide containing this sequence: a cyclized peptide containing the sequence KKQRFRHL (also: cyclized, mode and places not given here) | – | inhibitor potency compared with linear KKQRFRHL (IGF-I): more potent inhibitor |
| vitronectin | shown to bind | – |
| KKQRFRHR (AlphaV beta3 binding sequence from vitronectin) | – | stimulation of β3 phosphorylation, SHP-2 transfer to downstream signaling molecules and enhancement of IGF-I receptor activation in response to IGF-I (β3 phosphorylation): full stimulation |
| insulin-like binding protein-5 (RKGFYKRK) [IGFBP-5] | shown to bind | – |
| osteopontin | shown to bind | – |
| heparin binding epidermal growth factor | shown to bind | – |
| connective tissue growth factor (protein) QNCSGPCRCPDEPAPRCPAGVSLVLDGCGCCRVCAKQLGELCTERDPCDPHKGLFCHFGSPANRKIGVCTAKDGAPCIFGGTVYRSGESFQSSCKYQCTCLDGAVGCMPLCSMDVRLPSPDCPFPRRVKLPGKCCEEWVCDEPKDQTVVGPALAAYRLEDTFGPDPTMIRANCLVQTTEWSACSKTCGMGISTRVTNDNASCRLEKQSRLCMVRPCEADLEENIKKGKKCIRTPKISKPIKFELSGCTSMKTYRAKFCGVCTDGRCCTPHRTTTLPVEFKCPDGEVMKKNMMFIKTCACHYNCPGDNDIFESLYYRKMYGDMA | shown to bind | – |
